The record followed here is the Immune Epitope Database (IEDB).

One test deals with HLA-B*48:01. Nature of the test: IEDB peptide-MHC binding, purified MHC/direct/fluorescence; filed as Kd, often an IC50 or EC50 that approximates it; ≥ and ≤ were set here for values at or beyond the usual limits of such assays. To be noted: source organism: Mycobacterium tuberculosis str. Haarlem.
A further test concerns the target HLA-C*14:02. Described as above.
The target in test [1] is HLA-B*15:01. The description is as above.
In the next test the target is HLA-B*35:01. Nature of the test: IEDB peptide-MHC binding, purified MHC/competitive/fluorescence; filed as Kd, often an IC50 or EC50 that approximates it; ≥ and ≤ were set here for values at or beyond the usual limits of such assays. To be noted: source organism: Mycobacterium tuberculosis H37Rv.
The target in test [2] is HLA-A*02:01. The test is described as follows: IEDB peptide-MHC binding, purified MHC/competitive/fluorescence; ≥ and ≤ were set here for values at or beyond the usual limits of such assays. To be noted: source organism: Sudan ebolavirus.
Another test deals with HLA-B*08:01. The description is as above. The settings on record: source organism: Sudan ebolavirus.
The target of test [3] is HLA-A*02:01. Nature of the test: IEDB peptide-MHC binding, purified MHC/direct/fluorescence; filed as Kd, often an IC50 or EC50 that approximates it; ≥ and ≤ were set here for values at or beyond the usual limits of such assays. To be noted: source organism: Zaire ebolavirus.
A further test deals with HLA-A*03:01. The test is described as above.
The next test concerns the target HLA-A*23:01. The test is described as above.
The target of test [4] is HLA-A*24:03. Described as above.
The target of a further test is HLA-A*29:02. The test is described as above.
The target of another test is HLA-A*26:01. The test is described as follows: IEDB peptide-MHC binding, purified MHC/competitive/fluorescence; filed as Kd, often an IC50 or EC50 that approximates it; ≥ and ≤ were set here for values at or beyond the usual limits of such assays.
Test [5] concerns the target HLA-A*69:01. Described as above.
Test [6] concerns the target HLA-B*15:01. The description is as above.
For the next test, the target named is HLA-B*15:17. The test is described as above.
Another test concerns the target HLA-B*18:01. Described as above.
In a further test the target is HLA-B*27:03. Described as above.
For the next test, the target named is HLA-B*46:01. Described as above.
In the next test the target is HLA-B*51:01. The test is described as above.
The target of the next test is HLA-B*57:01. Described as above.
In test [7] the target is HLA-B*39:01. Nature of the test: IEDB peptide-MHC binding, purified MHC/direct/fluorescence; filed as Kd, often an IC50 or EC50 that approximates it; ≥ and ≤ were set here for values at or beyond the usual limits of such assays. To be noted: source organism: Influenza A virus (A/mallard/Norway/685/05(H9N2)).
For the next test, the target named is HLA-C*06:02. The test is described as above.
A further test has as its target HLA-A*02:03. The description is as above.
A further test deals with HLA-A*02:12. Described as above.
The target in the next test is HLA-A*02:16. The test is described as above.
A further test has as its target HLA-A*02:19. The test is described as above.
The next test addresses HLA-A*68:02. The test is described as above.
Another test concerns the target HLA-C*12:03. Described as above. To be noted: source organism: Zaire ebolavirus.
Test [8] has as its target HLA-A*02:01. The test is described as follows: IEDB peptide-MHC binding, purified MHC/competitive/fluorescence; filed as Kd, often an IC50 or EC50 that approximates it; ≥ and ≤ were set here for values at or beyond the usual limits of such assays.
Test [9] addresses HLA-B*39:01. The test is described as above.
The target of the next test is HLA-B*58:01. The description is as above.
For the next test, the target named is HLA-A*02:11. The test is described as follows: IEDB peptide-MHC binding, purified MHC/direct/fluorescence; filed as Kd, often an IC50 or EC50 that approximates it; ≥ and ≤ were set here for values at or beyond the usual limits of such assays. To be noted: source organism: Zaire ebolavirus.
Test [10] addresses HLA-A*69:01. The test is described as above. To be noted: source organism: Francisella tularensis subsp. holarctica LVS.
In test [11] the target is HLA-A*24:03. The test is described as follows: IEDB peptide-MHC binding, purified MHC/competitive/fluorescence; filed as Kd, often an IC50 or EC50 that approximates it; ≥ and ≤ were set here for values at or beyond the usual limits of such assays.
The target of the next test is HLA-A*31:01. The test is described as above. To be noted: source organism: Francisella tularensis subsp. tularensis FSC198.
The mark [12] stands for this setting: source organism: Zaire ebolavirus.
The mark [13] stands for this setting: source organism: Rickettsia felis URRWXCal2.
Setting [14] is: source organism: Limestone Canyon virus.
Setting [15] is: source organism: Four Corners hantavirus.
[16] abbreviates: source organism: Francisella tularensis subsp. tularensis FSC198.
Setting [17] is: source organism: Araucaria virus.
Where [18] appears, read: source organism: Rickettsia sibirica 246.

Usually Kd stands for the constant that tells how readily two partners part at equilibrium. Read a low Kd as higher affinity. With AAAAFEAAL, the Kd was 0.175 µM in the test with HLA-B*48:01 and 0.166 µM in the test with HLA-C*14:02 (source organism: Burkholderia orbicola).

On to AMAAAAAPY, for which the equilibrium dissociation constant (Kd) with HLA-B*15:01 [1] (source organism: Mycobacterium tuberculosis variant bovis BCG str. Pasteur 1173P2) was 0.294 µM; in the test with HLA-C*14:02 (source organism: Mycobacterium tuberculosis H37Rv), 0.094 µM; with HLA-B*35:01, 0.0083 µM.

The term IC50 denotes the point on the concentration scale where inhibition reaches its midpoint. FLYDRLAST: the IC50 in the test with HLA-A*02:01 [2] was found to be 0.887 µM; with HLA-B*08:01 it was 40.6 µM. For the same sequence, the Kd with HLA-A*02:01 [3] is 0.0022 µM; with HLA-A*03:01 (setting [12]), no less than 20 µM; with HLA-A*23:01 (setting [12]), no less than 20 µM; with HLA-A*24:03 [4] (setting [12]) it was no less than 20 µM; with HLA-A*29:02 (setting [12]), no less than 20 µM; with HLA-A*26:01 (setting [12]) it was no less than 20 µM. Besides, the Kd with HLA-A*69:01 [5] (setting [12]), with HLA-B*15:01 [6] (setting [12]), in the test with HLA-B*15:17 (setting [12]), with HLA-B*18:01 (setting [12]), with HLA-B*27:03 (setting [12]) and in the test with HLA-B*46:01 (setting [12]) was no less than 20 µM throughout. Also, the Kd in the test with HLA-B*51:01 (setting [12]) and with HLA-B*57:01 (setting [12]) was no less than 20 µM each time.

GYTVARSQL: the Kd with HLA-A*23:01 (setting [13]) came out at 0.466 µM; with HLA-A*24:03 [4] (setting [13]), 0.022 µM.

For HRTLLMNEL, the Kd with HLA-B*39:01 [7] and in the test with HLA-C*06:02 (source organism: Influenza A virus (A/nt/60/1968(H3N2))) was no less than 20 µM throughout.

On to IMYDHLPGF, for which the Kd in the test with HLA-A*02:03 (setting [12]), with HLA-A*02:12 (setting [12]), with HLA-A*02:16 (setting [12]), with HLA-A*02:19 (setting [12]), with HLA-A*03:01 (setting [12]) and with HLA-A*68:02 (setting [12]) was no less than 20 µM in each case. Moreover, the Kd with HLA-C*12:03 is 0.306 µM; in the test with HLA-A*02:01 [8] (setting [12]), no less than 20 µM; with HLA-A*26:01 (setting [12]) it was no less than 20 µM; with HLA-A*69:01 [5] (setting [12]), no less than 20 µM; with HLA-B*18:01 (setting [12]) it was no less than 20 µM; with HLA-B*27:03 (setting [12]), no less than 20 µM. Besides, the results for the equilibrium dissociation constant (Kd) with HLA-B*39:01 [9] (setting [12]), with HLA-B*57:01 (setting [12]) and with HLA-B*58:01 (setting [12]) were no less than 20 µM, no less than 20 µM and 0.0731 µM, respectively.

As to ISSGETRSF, the Kd with HLA-A*02:03 (setting [12]), with HLA-A*02:11, with HLA-A*02:12 (setting [12]), with HLA-A*02:16 (setting [12]), with HLA-A*02:19 (setting [12]) and with HLA-A*03:01 (setting [12]) was no less than 20 µM throughout. Also, the equilibrium dissociation constant (Kd) in the test with HLA-A*29:02 (setting [12]) was no less than 20 µM; with HLA-A*68:02 (setting [12]), no less than 20 µM; in the test with HLA-B*15:01 [1] (source organism: Nitrococcus mobilis Nb-231), 3.6 µM; with HLA-A*02:01 [8] (setting [12]), no less than 20 µM; with HLA-A*26:01 (setting [12]), no less than 20 µM; with HLA-A*69:01 [5] (setting [12]), no less than 20 µM. Also, the Kd with HLA-B*18:01 (setting [12]), in the test with HLA-B*27:03 (setting [12]), with HLA-B*39:01 [9] (setting [12]), in the test with HLA-B*46:01 (setting [12]), with HLA-B*51:01 (setting [12]) and in the test with HLA-B*57:01 (setting [12]) was no less than 20 µM each time. In addition, in the test with HLA-B*58:01 (setting [12]), the Kd turned out to be 0.351 µM.

For the sequence KSAFYQSYL, the Kd in the test with HLA-A*02:12 (setting [14]), with HLA-A*02:16 (setting [14]), with HLA-A*02:19 (setting [14]), in the test with HLA-A*03:01 (setting [14]), with HLA-A*29:02 (setting [14]) and in the test with HLA-A*26:01 (setting [15]) was no less than 20 µM throughout. Further, the equilibrium dissociation constant (Kd) in the test with HLA-A*69:01 [5] (setting [15]), in the test with HLA-B*15:01 [6] (setting [15]), in the test with HLA-B*18:01 (setting [15]), with HLA-B*27:03 (setting [15]), with HLA-B*39:01 [9] (setting [15]) and with HLA-B*46:01 (setting [15]) was no less than 20 µM each time. Moreover, in the test with HLA-B*58:01 (setting [15]), the Kd was determined as 0.0021 µM.

With KYYIYRLYF, the Kd in the test with HLA-A*69:01 [10] was no less than 20 µM; with HLA-C*06:02 (setting [16]), no less than 20 µM; in the test with HLA-A*24:03 [11] (setting [16]) it was 0.0008 µM; with HLA-A*31:01 it was no less than 20 µM.

Turning to LYVAGVPEL, the Kd with HLA-A*02:03 (setting [17]), in the test with HLA-A*02:12 (setting [17]), with HLA-A*02:16 (setting [17]), with HLA-A*02:19 (setting [17]), in the test with HLA-A*03:01 (setting [17]) and with HLA-A*29:02 (setting [17]) was no less than 20 µM throughout. In addition, the Kd with HLA-A*68:02 (setting [17]) was no less than 20 µM; with HLA-A*02:01 [8] (setting [17]), no less than 20 µM; with HLA-A*24:03 [11] (setting [17]), 0.0003 µM; with HLA-A*26:01 (setting [17]), no less than 20 µM; with HLA-A*69:01 [5] (setting [17]), no less than 20 µM; with HLA-B*15:17 (setting [17]) it was no less than 20 µM. The Kd with HLA-B*18:01 (setting [17]), in the test with HLA-B*27:03 (setting [17]), with HLA-B*39:01 [9] (setting [17]), in the test with HLA-B*46:01 (setting [17]), with HLA-B*51:01 (setting [17]) and in the test with HLA-B*57:01 (setting [17]) was no less than 20 µM each time.

As to MFSVYDYGF, the Kd with HLA-A*23:01 (setting [18]) and in the test with HLA-A*24:03 [4] (setting [18]) was 0.003 µM in each case.

The sequence STVADEIAF returned a Kd in the test with HLA-B*58:01 (source organism: Escherichia coli E22) of 1.78 µM.
